According to article PMC3239198:
Like-named read-outs stand apart in the source and are kept apart here.

Tests used:
[1] = biological target: His-tagged TetR (Tet repressor) (UniProt P04483); test: competition EMSA
[2] = biological target: His-tagged TetR (Tet repressor) (UniProt P04483); test: competition EMSA; remark: listed apart in the source
[3] = biological target: His-tagged TetR (Tet repressor) (UniProt P04483); test: EMSA

Sequence of His-tagged TetR (Tet repressor) (P04483 whole entry): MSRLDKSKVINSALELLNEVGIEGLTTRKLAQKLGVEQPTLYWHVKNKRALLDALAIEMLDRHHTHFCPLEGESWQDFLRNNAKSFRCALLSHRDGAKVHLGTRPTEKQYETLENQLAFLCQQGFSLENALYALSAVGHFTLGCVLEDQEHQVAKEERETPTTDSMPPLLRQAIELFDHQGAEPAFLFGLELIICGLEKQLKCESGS

Sequence	Ki [1] [nM]	Ki [2] [nM]	Kd [3] [nM]
GGGAGAUACGCGUAUCAAGCAGCAUGUUAUGGGUCAUCACAGACCAGAGAAAAGCUUGAUACGCGAAAGGAG [TetR aptamer 12-1R (pDA1), active]	58	76	
TTGACACTCTATCATTGATAGAGTTAT (double strand) [tetO dsDNA (ODA68/ODA69)]			60
